Laboratory results taken from the nanobody polyreactivity screen of Harvey et al. (2022).

Assay: yeast display, Sf9 membrane polyspecificity reagent, FACS + sequencing; frameworks hold sequencing errors
Summary of the method: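 In a synthetic yeast display library (Saccharomyces cerevisiae BJ5465), nanobody expression was induced with galactose for 36–48 hours. FACS gates were set low and high (top ~1%) using anti-HA fluorescence for expression and streptavidin fluorescence for binding of the Sf9 membrane reagent. Each polyreactivity label is drawn from the gate of origin.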

Sequence	polyreactivity (PSR sort gate)
QVQLVESGGGLVQAGGSLRLSCAASGSIFKYYTMGGYRQAPGKERELVAAISGSGSRTYYADSVKGRFTISRDNAKNTVYLQMNSLKPEDTAVYYCAAEVKDSFVNAKSYYWGQGTQVTVSS	high polyreactivity
QVQLVESGGGLVQAGGSLRLSCAASGSIFKYYTMGWYRQAPGKERELVAAISGSGSRTYYADSVKGRFTISRDNAKNTVYLQMNSLKPEDTAVYYCAAEVKDSFVNAKSYYWGQGTQVTVSS	high polyreactivity
QVQLVESGGGLVQAGGSLRLSCAASGSIFKYYTMGWYRQAPGKERELVSGISYRGGSTYYADSVKGRFTISRDNAKNTVYLQMNSLKPEDTAVYYCNAVQLSGGDYWGQGTQVTVSS	high polyreactivity
QVQLVESGGGLVQAGGSLRLSCAASGSIFLAYAMGWYRQAPGKERELVAAITAGTGSTYYADSVKGRFTISRDNAKNTVYLQMNSLKPEDTAVYYCAKAVSLFRGPFSSFDYWGQGTQVTVSS	low polyreactivity
QVQLVESGGGLVQAGGSLRLSCAASGSIFLDNAKGWYRQAPGKERELVSAISSGGNTNYADSVKGRFTISRDNAKNTVSLQMNSLKPEDTAVYYCAADPTKWHYYVPRYYYWGQGTQVTVSS	low polyreactivity
QVQLVESGGGLVQAGGSLRLSCAASGSIFLDYAMGWYRQAPGKERELVAGITISGGSTYYADSVKGRFTISRDNAKNTVYLQMNSLKPEDTSVYYCAKVAPRSSSSQEYYYWGQGTQVTVSS	low polyreactivity
QVQLVESGGGLVQAGGSLRLSCAASGSIFLEYAMGWYRQAPGKERELVAAISSSGGSTYYADSVKGRFTISRDNAKYTVYLQMNSLKPEDTAVYYCAAGGHYYSSPGYNYWGQGTQVTVSS	high polyreactivity
QVQLVESGGGLVQAGGSLRLSCAASGSIFLGNALGWYRQAPGKERELVAAISRSGGRTYYADSVKGRFTISRDNAKNTVYLQMNSLKPEDTAVYYCAARSYGIYYAKEFYYWGQGTQVTVSS	high polyreactivity
QVQLVESGGGLVQAGGSLRLSCAASGSIFLGNAMGWYRQAPGKERELVAAISGGDSTNYADSVKGRFTISRDNAKNTVYLQMNSLKPEDTAVYYCAKDRPQEYDYWGQGTQVTVSS	low polyreactivity
QVQLVESGGGLVQAGGSLRLSCAASGSIFLGNAMGWYRQAPGKERELVAAITSRGGRTYYADSVKGRFTISRDNAKNTVYLQMISLKPEDTAVYYCAADVSRPRAGFNYWGQGTQVTVSS	high polyreactivity
QVQLVESGGGLVQAGGSLRLSCAASGSIFLGNAMGWYRQAPGKERELVAAITWSGGSTTYADSVKGRFTISRDNAKNTVYLQMNSLKREDTAVYYCNASIYQRYDYWGQGTQVTVSS	low polyreactivity
QVQLVESGGGLVQAGGSLRLSCAASGSIFLGYAMGWYRQAPGKERELVAAISWTGGSTYYADSVKGRFTISRDNAKNTVYLQMNSLTPEDTAVYYCAAEDQYGFDYWGQGTQVTVYS	high polyreactivity
QVQLVESGGGLVQAGGSLRLSCAASGSIFLGYTMGWSRQAPGKERELVAAINSSGGSTYYADSVKGRFTISRDNAKNTVYLQMNSLKPEDTAVYYCAVANSILLFDSWGQGTQVTVSS	low polyreactivity
QVQLVESGGGLVQAGGSLRLSCAASGSIFLGYTMGWYRQAPGKERELVAAINSSGGSTYYADSVKGRFTISRDNAKNTVYLQMNSLKPEDTAVYYCADANSILLFDSWGQGTQVTVSS	low polyreactivity
QVQLVESGGGLVQAGGSLRLSCAASGSIFLGYVMGWSRQAPGKERELVAAITNSGGSTYYADSVKGRFTISRDNAKNTVYLQINSLKPEDTAVYYCAADSITSKNQGLDYDYWGQGTQVTVSS	low polyreactivity
QVQLVESGGGLVQAGGSLRLSCAASGSIFLLNAMGWYRQAPGKERELVARIRINGGSTYYADSVKGRFTISRDNAKNTVYLKMNSLKPEDTAVYYCAADDTGPYSNWYDYWGQGTQVTVSS	low polyreactivity
QVQLVESGGGLVQAGGSLRLSCAASGSIFLLYAMGGYRQAPGKERELVAAITRGGGSTYYADSVKGRFTISRDNAKNTVYLQMNSLKPEDTAVYYCAKGFQNHNGRLVVAYDYWGQGTQVTVSS	low polyreactivity
QVQLVESGGGLVQAGGSLRLSCAASGSIFLLYAMGWYRQAPGKERELVAAISYSGGATYYADSVKGRFTISRDNAKYTVYLQMNILKPEDTAVYYCAAEAYDDYDYWGQGTQVTVSS	low polyreactivity
QVQLVESGGGLVQAGGSLRLSCAASGSIFLLYAMGWYRQAPGKERELVARISWSGDNTRYADSVKGRFTISRDNAKNTVYLQMNSLKPEDTAVYYCNAYYFYGQWKGYDYWGQGTQVTVSS	low polyreactivity
QVQLVESGGGLVQAGGSLRLSCAASGSIFLPYAMGWYRQAPGKERELVAAIDTSSGSTYYADSVKGRFTISRDNAKNTVYLQMNSLKPEDTAVYYCNADYWVQGDDWLLYDYWGQGTQVTVSS	low polyreactivity
QVQLVESGGGLVQAGGSLRLSCAASGSIFLQNAMGWYRQAPGKERELVARITTSGGSTYYADSVKGRFTISRDNAKNTVYLPMNSQKPEDTAVYYCAVRSRRQRGGIRGFDYGGQGTQVTVSS	high polyreactivity
QVQLVESGGGLVQAGGSLRLSCAASGSIFLQYAMAWYRQAPGKERELVAAISWSGGSTYYAYSVKGRFTISRDNAKNTVYLQMNSLKPEDTAVYYCAAPITPYSHYRMDYWGQGTQVTVSS	low polyreactivity

Sequence	polyreactivity (PSR sort gate)
QVQLVESGGGLVQAGGSLRLSCAASGSIFLRNAMGWYRQAPGKERELVAAITYSSGSTYYADSVKGRFTISRDNAKNTVYLQMNSLKPEDTAVYYCAATSRSSRRYYYWGQGTQVTVSS	high polyreactivity
QVQLVESGGGLVQAGGSLRLSCAASGSIFLRYAMGWYRQAPGKERELVAAITTGGGSTYYADSVKGRFTISRDNAKNTVYLQMNSLKPEDTAVYYCAARIRQNPGGDNSWGQGTQVTVSS	low polyreactivity
QVQLVESGGGLVQAGGSLRLSCAASGSIFLSNARGWYIQAPGKERELVADIDWTRGDTYYADSVKGRFTISRDNAKNTVYLQMNSLKPEDTAVYDCAADYGYRNLLTEYGYWGQGTEVTVSS	low polyreactivity
QVQLVESGGGLVQAGGSLRLSCAASGSIFLSYAMGWYRQAPGKERELVAAISGRGGSTYYADSVKGRFTISRDNAKNTGYLQMNSLKPEDTAVNYCASEQWGWYWYDYWGQGTQVTVSS	high polyreactivity
QVQLVESGGGLVQAGGSLRLSCAASGSIFLTYAMGWYRQAPGKERELVAAISSSVGSTNYADSVKGRFTISRDNAKNTVYLQMNSLKPEDTAVYYCNATGVQYFLYGYWGQGTQVTVSS	low polyreactivity
QVQLVESGGGLVQAGGSLRLSCAASGSIFLVNAMGWYRQAPGKERELVAAINSGGSTYYADSVKGRFTISRDNAKNTVYLQMNSLKPEDTAVYYCAADFWLKVWQDTDYDYDYWGQGTQVTVSS	low polyreactivity
QVQLVESGGGLVQAGGSLRLSCAASGSIFLVNAMGWYRQAPGKERELVAAITYGGDSTYYADSVKGRFTISRDNAKNTVYLQMNSLKPEDTAVYYCAADAWVGWHDEYDYWGQGTQVTVSS	low polyreactivity
QVQLVESGGGLVQAGGSLRLSCAASGSIFLVYAMGWYRQAPGKERELVAAISRSGRTYADSVKGRFTISRDNAKNTVYLQMNSLKPEDTAVYYCAAGTKRRFEGDYWGQGTQVTVSS	high polyreactivity
QVQLVESGGGLVQAGGSLRLSCAASGSIFLWNAMGWYRQAPGKERELVAAITWRGGRTSYADSVKGRFTISRDNAKNTVYLQMNSLKPEDTAVYYCAKEAHPPWTGQDVFRSYDYWGQGTQVTVSS	low polyreactivity
QVQLVESGGGLVQAGGSLRLSCAASGSIFLYNAMGWYRQAPGKERELVADITTTGGSTYYADSVKGRFTISRDNAKNTVYLQMNSLKPEDTAVYYCNVDYWGQGTQVTVSS	low polyreactivity
QVQLVESGGGLVQAGGSLRLSCAASGSIFLYYAMGWYRQAPGKERELVAAISGRAGSTYYADSVKGRFTISRDNAKNTVYLQMNSLKPEDTAVYYCAAGYWQGYPGFKYYWGQGTQVTVSS	low polyreactivity
QVQLVESGGGLVQAGGSLRLSCAASGSIFLYYTMGWYRQEPGKERELVAAITWSGSSTYYADSVKGRFTISRDNAKNTVYLQMNSLKPEDTAVYYCATRYRYRYWGQGTQVTVSS	high polyreactivity
QVQLVESGGGLVQAGGSLRLSCAASGSIFNAYVMGWYRQAPGKERELVAAISRSGGRTYYADSVKGRFTISRDNAKNTVYLQMNSLKPEDTAVYYCAADYGGPYGQLDYWGQGTQVTVSS	high polyreactivity
QVQLVESGGGLVQAGGSLRLSCAASGSIFNGYAMGWYRQAPGKERELVADIRSGGSTYYADSVKGRFTISRDNAKYTVYLQMNSLKPEDTAVYYCAADTITDGYDYWGQGTQVTVSS	low polyreactivity
QVQLVESGGGLVQAGGSLRLSCAASGSIFNGYAMGWYRQAPGKVRELVAAISWNGGRTYYADSVKGRFTISRDNAKNTVYLQKNSLKPEDTAVYYCNKVSGYDVDYWGQGTQVTVSS	high polyreactivity
QVQLVESGGGLVQAGGSLRLSCAASGSIFNHYAMGWYRQAPGKERELVAAISGSGGSTYYADSVKGRFTISRDNAQNTVYLQMYSLKPEDTAVYYCAARILRHWVSAEYYWGQGTQVTVSS	low polyreactivity
QVQLVESGGGLVQAGGSLRLSCAASGSIFNHYAMGWYRQAPGKERELVAVIPSGGSTNYADSVKGRFTISRDNAKNTVYLQMNSLKPEDTAVYYCAADTYLSAVDYYGWAHDYWGQGTQVTVSS	low polyreactivity
QVQLVESGGGLVQAGGSLRLSCAASGSIFNINAMGWYRQAPGKEREFVAAIDYSDSTYYADSVKGRFTISRDNAKNTVYLQMNSLKPEDTAVYYCAADVWKDGYWGDYWGQGTQVNVSS	high polyreactivity
QVQLVESGGGLVQAGGSLRLSCAASGSIFNKYAMGWYRQAPGKERELVAAISVSGTRTYYADSVKGRFTISRDNAKNTVYLQMNSLKPEDTAVYYCAAGGVGAYDYWGQGTQVTVSS	high polyreactivity
QVQLVESGGGLVQAGGSLRLSCAASGSIFNPNAMGWYRQAPGKERELLAAIDSGGTTDYADSVKGRFTISRDNAKNTVYLQMNSLKPEVTAVYYCNADRTVTSSSFTDYDYWGQGTQVTVSS	high polyreactivity
QVQLVESGGGLVQAGGSLRLSCAASGSIFNPYAMGWYRQAPGKERELVAAISSTGSTYYADSVKGRFTISRDNAKNTVYLQMNSLKPEDTAVYYCAADWYWYWFSTYDYWGQGTQVTVSS	low polyreactivity
